Measurements reported in patent CN114057881A (HANGZHOU XIANZHI BIOTECHNOLOGY CO LTD, dated 2022).

B1: 抗氯胺酮(KET)特异性抗体4A1 (antibody, V domains shown)
VH: EVRLEESGGGLVQPGGSMKLSCVASGFTFSNYWMNWVRQSPEKGLEWVDEIKLKSNNYETHCVESVKGRFTISRDDSKSSVYLQMNNLRAEDTGIYYCARRGYGTYYAMDYWGQGTSVIVSS
VL: DVQITQSPSYLAASPGETITINCRASKSIRKYLAWYQEKPGKTNKLLIYSGSTLRSGTPSRFSGSGSGTDFTLTISSLEPEDFAMYYCQQHNEYPYTFGGGTKLEIKR
notes: also called 4A1单抗
B2: 抗氯胺酮(KET)特异性抗体6B2 (antibody, V domains shown)
VH: EVQLQQSGAELLKPGASVKLSCTASGFNIKDTYIHWVKQRPEQGLEWIGRIDPANGHTYYDPQFQGKATLTADTSSNTAYLQLSSLTSEDSAIYYCARFGEDWGQGTLVTVSA
VL: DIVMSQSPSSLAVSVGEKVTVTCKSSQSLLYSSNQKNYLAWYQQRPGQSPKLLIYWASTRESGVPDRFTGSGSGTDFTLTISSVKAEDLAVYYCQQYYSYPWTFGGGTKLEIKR
notes: also called 6B2单抗

Biological target: T1, 牛血清白蛋白 (bovine, UniProt P02769 25-607)
T1 construct: Carrier protein control, without ketamine, in the ELISA screen; also called BSA
Assay: ELISA, BSA coated at 1 μg/mL, purified antibody, HRP secondary antibody, OD450

T1 sequence (P02769 25-607 limits assumed): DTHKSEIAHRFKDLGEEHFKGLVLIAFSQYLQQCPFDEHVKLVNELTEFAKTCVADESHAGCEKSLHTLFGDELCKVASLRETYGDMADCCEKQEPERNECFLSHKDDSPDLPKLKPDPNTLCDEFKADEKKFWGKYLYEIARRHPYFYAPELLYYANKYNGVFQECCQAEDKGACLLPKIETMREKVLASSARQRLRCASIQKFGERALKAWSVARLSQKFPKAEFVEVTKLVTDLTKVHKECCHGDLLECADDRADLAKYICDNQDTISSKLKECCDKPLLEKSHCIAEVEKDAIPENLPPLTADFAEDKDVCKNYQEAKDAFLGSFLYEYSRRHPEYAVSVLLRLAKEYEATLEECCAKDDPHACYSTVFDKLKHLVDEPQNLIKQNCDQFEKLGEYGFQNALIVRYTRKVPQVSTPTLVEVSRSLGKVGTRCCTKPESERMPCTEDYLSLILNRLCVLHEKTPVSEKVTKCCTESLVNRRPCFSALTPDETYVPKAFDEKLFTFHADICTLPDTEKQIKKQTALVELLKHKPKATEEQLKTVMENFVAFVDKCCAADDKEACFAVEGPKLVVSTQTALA

Binder	binding result
B1	no binding
B2	no binding
